Source: publication PMC10987609, “ATR limits Rad18-mediated PCNA monoubiquitination to preserve replication fork and telomerase-independent telomere stability” (The EMBO Journal, 2024)

Molecular target: T1, ubiquitinated SFB-tagged PCNA purified from HEK293T cells (human | , UniProt P12004 1-261; P0CG48 1-76, ubiquitinated with His-tagged ubiquitin; the paper places Rad18-mediated monoubiquitination at lysine 164)
T1 construct: PCNA, human, full-length cDNA; wild-type ubiquitin (Ub), conjugated to PCNA; the transfected plasmid is probably the N-terminal one; also called ubiquitinated SFB-PCNA; monoubiquitinated PCNA; source: HEK293T stably expressing His-tagged Ub, transfected with SFB-PCNA, treated with HU and ATRi; purified (cobalt resin under denaturing conditions, then streptavidin beads, biotin elution)
Assay: pull-down; GST-UBZ4 on glutathione-Sepharose resin incubated with ubiquitinated SFB-tagged PCNA purified from HEK293T cells; NETN buffer, 4 °C, 1 h
Settings: both partners purified

B1: GST-SLX4-UBZ4-WT (domain or fragment, human, UniProt Q8IY92 292-361, looked up)
chain: GLFFCQICQKNLSAMNVTRREQHVNRCLDEAEKTLRPSVPQIPECPICGKPFLTLKSRTSHLKQCAVKME
notes: SLX4, human, fragment with the tandem UBZ4 domains, amino acids 292–361; also called GST-UBZ4; source: E. coli, purified (glutathione-Sepharose, used on beads)
B1: binds.
